T1: Rhesus D antigen (human, UniProt Q02161 2-417)
T1 construct: whole, on cells; Presented on RhD-positive erythrocytes in all assays; also called RhD; RhD antigen
T1 sequence (looked up): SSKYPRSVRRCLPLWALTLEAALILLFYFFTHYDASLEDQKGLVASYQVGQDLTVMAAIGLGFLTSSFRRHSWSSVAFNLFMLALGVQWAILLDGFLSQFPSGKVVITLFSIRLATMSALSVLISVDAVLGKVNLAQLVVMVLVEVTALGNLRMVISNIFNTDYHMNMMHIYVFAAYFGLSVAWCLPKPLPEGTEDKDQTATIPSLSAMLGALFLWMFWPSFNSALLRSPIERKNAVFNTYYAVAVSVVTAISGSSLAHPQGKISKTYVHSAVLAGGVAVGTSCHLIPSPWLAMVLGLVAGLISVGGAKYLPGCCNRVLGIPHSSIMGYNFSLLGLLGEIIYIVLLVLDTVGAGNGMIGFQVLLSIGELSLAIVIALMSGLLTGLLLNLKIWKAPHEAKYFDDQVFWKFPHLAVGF


biological target: T1, Rhesus D antigen; assay: agglutination assay, Fab on RhD(+)/RhD(-) RBC mix
Method: After each round of panning single colonies were picked for analysis of their binding properties to red blood cells in agglutination assays. Briefly, single colonies were inoculated into 2×YT/100 μg/mL carbenicillin/1% glucose and shaken overnight at 37° C. The next day, DeepWell plates were inoculated using 900 μl 2×YT/100 μg/mL carbenicillin/0.1% glucose and 10 μl overnight culture. The plates were shaken for two hours at 37° C., before Fab induction was performed with addition of 300 μl 2×YT/100 μg/mL carbenicillin/0.25 mM IPTG per well. The plate was shaken overnight at 30° C. The following day, the bacteria were pelleted by centrifugation (3200×g, 4° C., 10 minutes), and re-suspended in 100 μl of 0.8 M NaCl, 0.2×PBS, 8 mM EDTA, and incubated for 15 minutes on ice in order to perform a periplasmic extraction of the Fab fragments. The plate was transferred to −20° C. and finally the suspension was thawed and centrifugation was performed for 10 minutes at 4° C. and 3200×g. The periplasmic extract was used in ELISA assays for analysis of Fab content and in agglutination assays to evaluate the binding potential of the individual Fab fragments. The agglutination assay was performed as follows: RhD(−) and RhD(+) RBC were mixed in a 1:1 ratio, and washed 3 times in PBS. After the final wash, the cell mix was re-suspended in 1% BSA in PBS at a density of 1% cells, 50 μl was added to each well of a 96-plate. Periplasmic extracts were added to the wells. As a positive control Rhesogamma P immunoglobulin (Aventis) was used according to the manufacturer's instructions. The plates were incubated for one hour at room temperature with gentle shaking. The cells were washed three times with PBS, before the secondary antibody was added (goat anti-human Fab/FITC conjugate, Sigma F5512) in a 1:100 dilution. The plates were left for agglutination for one hour at room temperature without shaking. Fab fragments positive in the agglutination assay was determined by visual inspection, and recorded by taking a picture. Quantization of the binding activity of the Fab fragments was performed by FACS analysis of the agglutination samples.

binding result	Binder
binds	RhD244.158B10 (Fab, V domains shown, Tested as Fab (periplasmic extract)) VH: QVQLVESGGGVVQPGRSLRLSCAASGFSFSSYGMHWVRQAPGKGLEWVAIIWYDGSNKLYADSVKGRFTISRDNSRNTLYLQMSSVRAEDTAVYYCARDSVRGVSRWGTQKYYAMDVWGQGTTVTVSS VL: DIQMTQSPSSLSASVGDRVIITCRASQSVNRYLNWYQQKPGKAPKLLIYAASSLQGGVPSRFSGSGSGTDFTLTISSLQREDFATYYCQQSYRTRTFGQGTKVEIKR
binds	RhD293.109A09 (Fab, V domains shown, Tested as Fab (periplasmic extract)) VH: EVQLVESGGGVVQPGRSLRLSCAASGFTFNTYGMHWVRQAPGKGLEWVAVIWYDGSNKYYADSVKGRFTISRDNSKNTLYLQMNSLRAEDTAVYYCAREVAVRGVIRYYYAMDVWGQGTTVTVSS VL: not shown
binds	RhD208.179B11 (Fab, V domains shown, Tested as Fab (periplasmic extract)) VH: EVQLVESGGGVVQPGRSLRLSCAASGFTFRTSAMHWVRQAPGKGLEWVAVIWYDGSNKYYADSVKGRFTISRDNSKNTLYLQMNSLRAEDTAVYYCAREMVSYSSSWYRRYYYYNMDVWGKGTTVTVSS VL: QAVVTQEPSLTVSPGGTVTLTCASSTGSVTSGYYPNWFQQKPGQAPRPLISGTSNKLSWTPARFSGSLLGGKAALTVSGVQPEDEAVYYCLLYYGVPQPVVFGGGTKLTVLG
binds	RhD206.160C06 (Fab, V domains shown, Tested as Fab (periplasmic extract)) VH: QVQLVESGGGVVQPGRSLRLSCAASGFTFSSYGMHWVRQAPGKGLEWVAIIWFDGSNKYYADSVKGRFTISRDNSKNTLYLQINSLRAEDTAVYYCAKEHGYYSSSWYRNYYYYAMDVWGQGTTVTVSS VL: DIQMTQSPSSLSASVGDRVTITCRASQSIRRYLNWYQKKPGKAPKLLIYAASSLQSGVPSRFSGSGSGTDFTLTISSLQPEDFATYYCQQSYRTQGLTFGGGTKVEIKR
binds	RhD292.109A02 (Fab, V domains shown, Tested as Fab (periplasmic extract)) VH: QVQLVETGGGVVQPGRSLRLSCAASGFTFSSYGMHWVRQAPGKGLEWVAVIWSDGSNKYYADSVKGRFTISRDNSRNTLYLQMNSLRAEDTAVFYCAREQGGYSSSWYRRYYYYYMDVWGQGTTVTVSS VL: DIQMTQSPSSLSASVGDRVTITCRASQSISSWLNWYQQKPGKAPNLLIFAASTLQSGVPSRFSGSGSGTDFTLTISSLQPEDFATYYCQQSYSSSVYTFGQGTKLEIKR

More lines, now with the values behind:

Binder	binding result
RhD241.119B05 (Fab, V domains shown, Tested as Fab (periplasmic extract)) VH: QVQLQESGPGLVKPSETLSLICTVSGGSISSNYWSWIRQPPGKGLEWIGYIYYSGNTNYNPSLKSRVTISLDTSKNQFSLKLRSVTAADTAVYYCAREWRQYGSGIRGSRYYYGMDVWGQGTLVTVSS VL: EIVLTQSPVTLSLSPGERATLSCRASQSVSSGYLAWYQQKPGQAPRLLIYGTSIRATGIPDRFSGSGSGTDFTLTISRLEPEDFAVYYCQQYGSSPLYSFGQGTKVDIKR	binds
RhD243.109A05 (Fab, V domains shown, Tested as Fab (periplasmic extract)) VH: QVQLVESGGGVVQPGRSLRLSCAASGFTFSTYGMHWVRQAPGKGLEWVAVIWYDGSQKYYVDSVKGRFTISRDNSKNTLYLQMNSLRAEDTAVYYCAREVAVRGVIRYYYGMDVWGQGTTVTVSS VL: DIQLTQSPSSLAASVGDRVIITCRSGQGIRNYLNWYQQKPGKAPKLLIYAASFLQSGVPSRFSGSGSGTDFTLTISSLQPEDFATYNCQQSYSDPWTFGQGTKVEIKR	binds
RhD158.119B06 (Fab, V domains shown, Tested as Fab (periplasmic extract)) VH: EVQLVETGGGVVQPGRSLRLSCAASGFSFSNFGFHWIRQSPGKGLEWVAVIWYDGSNRFYADSVKGRFTISRDSSKNMLFLQMDSLRAEDTAVYYCAREISMKVVIRRHYVMDVWGHGTTVTVSS VL: DIQMTQSPSPLSASVGDRVSITCRASRGISNSLAWYQQKPGKVPKLLIYAASTLQSGVPSRFSGGGSGTDFTLTISSLQPEDVATYYCHTYNSAPFAFGPGTKVDIKR	binds
RhD245.164E06 (Fab, V domains shown, Tested as Fab (periplasmic extract)) VH: EVQLVQSGGGVVQPGRSPRLSCAASGFTFSSYGMHWVRQAPGKGLEWVAFIWYDGSNKYYADSVKGRFTISRDNSKNTLYLQMNSLRAEDTAVYYCARDLRNHVFWSGYSTSFDYWGQGTLVTVSS VL: DIQMTQSPSSLSASVGDGITITCRASQSVRSYLNWYQQKPGKAPELLIYAASRLQSGVPSRFSGSGSGTDFTLTISSLQPEDFATYYCQHSYSTPVTFGQGTKVEVKR	binds
RhD240.125A09 (Fab, V domains shown, Tested as Fab (periplasmic extract)) VH: QLQLQESGPGLVKPSGTLSLTCAVSGGSMRSSNWWTWVRQPPGKGLEWIGEIHHGGSTNYNPSLQSRVTISVDKSKNRFSLKLSSVTAADTAVYHCARGRSYYDSSGHSFRGLVPFDIWGQGTMVTVSS VL: DIQMTQSPSTLSASVGDRVTITCRASQSISSWLAWYQQKPGKAPKLLVYKTSSLEGGVPSRFSGSGSGTEFSLTIFRLQSDDFATYYCQQYNSFPYTFGQGTKLEFTR	binds
RhD204.128A03 (Fab, V domains shown, Tested as Fab (periplasmic extract); lambda clone) VH: EVQLVESGGGVVQPGRSLRLSCAASGFSFSNYGMHWVRQAPGKGLEWVAVISYDGSEKYYADSVKGRFTISRDNSKKALYLQMNSLRAEDTAMYYCKNKVGATRRAVVAFDIWGQGTTVTVSS VL: LSSELTQDPAVSVALGQTVRITCQGDSLRSYYANWYQQKPGQAPLSVIYGKNNRPSGIPDRFSGSNSGNTAFLTITGTQAEDEADYYCNSRDSSGNYRELFGGGTKLTVLG	binds
RhD203.179F07 (Fab, V domains shown, Tested as Fab (periplasmic extract)) VH: EVQLVESGGGVVQPGRSLRLSCAASGFTFSNYGMHWVRQAPGKGLEWVAVIWYDGSNKYYADSVKGRFTISRDNSKNTLYLQMNSLRAEDTAVYYCAREMVSYSSSWYRRYYYYVMDVWGKGTTVTVSS VL: QSALTQPASVSGSPGQSITISCTATSSDIGAYNYVSWYQHHPGKAPKVIITDVNKRPSGVPDRFSGSKSGNTASLTISGLQPEDEAEYSCCSYAGTYSYVFGTGTKVTVLS	binds
RhD246.179B10 (Fab, V domains shown, Tested as Fab (periplasmic extract)) VH: EVQLVETGGGVVQPGRSLRLSCAASGFTFSSYGMHWVRQAPGKGLEWVAVIWYDGSNKYYADSVKGRFTISRDNSKNTLYLQMNSLRAEDTAVYYCAREMVSYSSSWYRRYYYYNMDVWGKGTTVTVSS VL: LSSELTQDPAVSVTLGQTVRITCQGDSLRHSYASWYQQKPGQAPILVIYGKNIRPSGIPDRFSGSTSGNTASLTITGAQAEDGGDYYCNSRDTSTDHYVFGDGTRVTVVG	binds
RhD242.181A03 (Fab, V domains shown, Tested as Fab (periplasmic extract)) VH: EVQLVESGGGVVQPGRSLRLSCAASGFTFSNHGMHWVRQAPGKGLEWVAVIWYDGSNKYYADSVKGRFTISRDNSKNTLYLQMNSLRAEDTAVYYCAREMASYSSSWYRRYYYYVMDVWGKGTTVTVSS VL: not shown	binds
RhD239.126F09 (Fab, V domains shown, Tested as Fab (periplasmic extract)) VH: QVQLVESGGGVVQPGTSLRLSCAASGFTFRTYGMHWVRQAPGKGLEWVAYIWYDGSNKYYADSVKGRFTISRDNSKSTLNLQMNSLRAEDTAVYYCAREIASRGYSRYLYYFDSWGQGTLVTVSS VL: DIQLTQSPSSLSASVGDRVTITCRASQSISSYLNWYQQKPGKAPKLLISAASSLQSGVPSRFSGSGSGTDFTLTISSLQREDYATYYCQQSYSTPPYTFGQGTKLEIKR	binds
RhD205.160B12 (Fab, V domains shown, Tested as Fab (periplasmic extract)) VH: EVQLVETGGGLVKPGGSLRLSCAASGFTFRSYSMNWVRQAPGKGLEWVSSIGSSSTYTYSADSVKGRFTISRDNAKNSLYLQMNSLRAEDTAVYYCARGEPLNYDYIWGGYRFTIHWGQGTLVTVSS VL: DIQLTQSPSFLSASVGDRVTITCRASHGISSYLAWYQQKPGKAPNLLIFPASTLQSGVPSRFSGSGSGTEFTLTISSLRPEDFATYYCQQLNSYSRWAFGQGTKVEVKR	binds
